Laboratory results from the supplement of paper PMC12042874.
± gives the uncertainty stated by the source.

test: amyloid nucleation score (Sup35N fusion, yeast selection) (log enrichment); library NNK3; higher = more nucleation; inactive = no reads after selection
In short: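 In psi-negative yeast, Sup35N fusions carrying peptides of 20 random codons were induced with 100 μM copper sulfate for 24 hours. The cells then grew 7 days at 30°C on medium lacking adenine and uracil, and plasmid inserts from input and output were Illumina-sequenced, excluding sequences with under 100 input reads. Nucleation score is the DiMSum log enrichment of output over input reads, centred on the mode score of non-aggregating sequences.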

Substance | amyloid nucleation score
IHRMMAYDFCRNLYFSEQWG | inactive
IIADKVQSLISFDNVGMCQW | inactive
IIAGGTYECQIQIVYF | 1.22 ± 0.14
IIAPSGVGWYWR | inactive
IICLK | inactive
IICYSWRRFLC | inactive
IIEDLLLHWLGVWVFSKKFA | inactive
IIFFNSDMNLGTDV | inactive
IIFIF | 1.3 ± 0.14
IIGSCGGFVSLACSGTLDGV | 0.538 ± 0.2
IIGSFC | inactive
IINATVCHCM | 3.33 ± 0.077
IINIRVIVSSLFPFLSSEFS | inactive
IIRISEFDSCGQTAW | inactive
IISMFYSSKA | inactive
IIVTKGAMR | -0.87 ± 1.7
IIWREVINVAVYRVVAVTHK | inactive
IIYILPLCPRV | inactive
IIYRKVVKRCAWITDKEIPG | inactive
IKAYSRRSLSSSG | inactive
IKFSEWMNVGIVWWHYLISG | inactive
IKMNNDGSMILWSLSSPTDL | inactive
IKNHIIVRIDFGLYGEEKDS | 0.399 ± 0.19

Substance | amyloid nucleation score
IKNMHRLDFR | -0.501 ± 1.9
IKNYCIIYSETPGRNKCGLR | 1.01 ± 0.22
IKSTTSKVPANMDSWLGTKM | inactive
IKVLVWFRSRCGNGANNLVC | inactive
IKVSECMSAYIVVFWYRMVV | inactive
IKVTIYPRLTRSNATFMPSM | inactive
IKVWRGKVG | inactive
IKYLNLVRSVPLFS | inactive
ILAFLERYTLMWFRELYNAS | inactive
ILFIDSSFLIVR | inactive
ILFSQETRYELSL | inactive
ILFTPMPVVD | inactive
ILGEWLFCSIIFWGVWDYAG | inactive
ILGGGSIFKSRQNMIWYTLS | 0.207 ± 0.61
ILISFNQLKP | 1.18 ± 0.13
ILKGL | inactive
ILLIVL | 1.68 ± 0.061
ILPFRWIVY | inactive
ILQTRKRVNVLNIVIWQIAF | 1.09 ± 0.18
ILSFEVWFGLWSTCGLYPHK | inactive
ILSYARTFVLIDNKVGMLR | inactive
ILVFVFSLRRIFAYMAVMSG | inactive
ILWDKRRSYYCIMGAIYIVR | inactive

Substance | amyloid nucleation score
ILWQYQTCC | -0.457 ± 0.73
ILYDDSCLFVTASWTSYVFV | 1.4 ± 0.073
ILYFDVTISV | inactive
IMCRLMSKVYTMPQYEILSF | inactive
IMDDTSQSNRCYYEKVLCRG | 1.34 ± 0.092
IMHGSNMVRRGLVQY | inactive
IMLGRANSIYMH | inactive
IMMMNLKM | 1.92 ± 0.079
IMPPEFVFIFHRMNGHYLGF | inactive
IMRSY | inactive
INAGF | inactive
INCLDFYTTVYNTRSWIFVH | inactive
INFNLVHRLEVFWRVI | inactive
INFTRSQYRFLIWYASQKMS | inactive
INFYVSFYIIVTCYVVAHCV | 1.32 ± 0.15
INGDNAPGYYYIMMIPRDIH | 0.858 ± 0.12
INHLSWCPVYFYFWNPVYLR | 1.49 ± 0.11
INLFTAYAVSL | inactive
INNLYDVQRGIADFWKSWLV | inactive
INSSILGSCLWWFLFCF | 1.2 ± 0.12
INTVLLGYS | inactive
INVDWFSPFGVLKNSSK | inactive
INVVIRSSHFECTGC | 1.15 ± 0.11

Substance | amyloid nucleation score
IPNDYAVAYAEGQLLVCELK | inactive
IPSIWMGISRK | inactive
IPSTMRDDFAYTNCPNNSFL | inactive
IPSWELISGHWS | inactive
IPVSHVAMNGECGWVSDIKH | inactive
IPYRLVGMLTVVTCRTSKLC | inactive
IQAAEVWMTAPFGFDMEGGR | inactive
IQASWFNWKWLL | inactive
IQDHFELFTNVGSYFQIQPL | inactive
IQHSFCGRNSDLPLNVWLMW | inactive
IQISYNWW | 0.75 ± 0.3
IQMSNLNNTSLQVRRPRPCV | inactive
IQSKRRPSDCLPKS | inactive
IQSSYSMYIEWL | inactive
IQTQTGTLVSRPLQPTAVVR | -0.007 ± 0.82
IRDYVFRLYYRLNCMIRKRG | inactive
IRFSGIVAVMISQGGSRREC | 2.5 ± 0.08
IRFVLYISGILSCWFNRWNN | inactive
IRGSSKTDSKRTWVK | -0.364 ± 0.7
IRKSFVEKMLPLPFSLAAIG | 0.234 ± 0.44
IRLCLLSIMWLNGWLSAIHA | inactive
IRLDSYLDNMSMLLCKYWFC | inactive
IRLHLLLGFVV | inactive

Substance | amyloid nucleation score
IRLPIGQGLC | inactive
IRLWQEHWNWRGRSLFFRWC | inactive
IRMHGWPYRLVREICFNGFF | 0.028 ± 0.5
IRMQNLRFGSLKLAGFIMCD | inactive
IRQGNVYK | inactive
IRRLDEVNEWANSYKLWKKQ | inactive
IRSNGTFTPWEPLSVIWCTK | inactive
IRSYERVSRLTGVVGSTSVD | inactive
IRVIISGVLGTELKNALAKY | inactive
IRVMNEMYLFLNRVYFAFSY | inactive
IRYLYLFVYSSRLSHIPGKN | inactive
IRYSGFPYPSNLWHTSATLY | inactive
ISCMVFANHR | inactive
ISCPLYQGMGHLIH | inactive
ISDDICSFVAHSAILFGRQM | inactive
ISESN | inactive
ISHFLE | inactive
ISIGYEQFLDSCNLLSIYLT | inactive
ISKSDLSLFN | inactive
ISLKSLFVFHNLSVDIWVQR | inactive
ISMLMFDLA | inactive
ISNGVNPGVFDAVSWLDWAV | inactive
ISPSYVQSDQFIGRTHVS | inactive

Substance | amyloid nucleation score
ISQFLGKFTFCNSALHFFGA | inactive
ISQHMANFYNSVVVVCILED | 3.19 ± 0.075
ISQLIEHRRAESCLRPKGRQ | inactive
ISTDDKIIGST | inactive
ISTLGYFAELVI | inactive
ISWYVWRVMYMSCGWSIVFR | inactive
ITARLVTS | inactive
ITIGTTIGDLSYR | inactive
ITKKRYNCRMFLIT | inactive
ITLLCTLYYGQPTLGVDLVL | inactive
ITMLMLATVKYSFYADLRFL | inactive
ITRTSDLFMLGSLINRGIAA | inactive
ITTCLMYHRLCECGSKVLGL | inactive
IVCNIN | -0.036 ± 0.55
IVFLLLVRLLVFIP | inactive
IVGAAVRGKMRFSMSRAWLG | inactive
IVHVSLWKMSISPIWEWSMI | 0.006 ± 0.37
IVKVLNGFKTRVSSVCVTNG | inactive
IVLNIMHNVSHFLGLYVEG | inactive
IVQTLYNLAAVHSTWAIRFQ | -0.142 ± 0.4
IVQYELTACDESAVKWIGMP | inactive
IVRMNQCSMGCLRVAMSSS | inactive
IVRRGLKMCG | inactive

Substance | amyloid nucleation score
IVSLALSFFLDHSQVFCLNS | 1.36 ± 0.15
IVSMDQESTLQWNVPGYVLL | inactive
IVSNTTPTQPTSVLVNYSVR | inactive
IVVANMWLLKKNYLRMELFA | inactive
IVYGPCYTLYVRCSVFSLSK | 2.31 ± 0.063
IWISLGAMIMFMVN | inactive
IWNKFGIIFYVVYYSIRTNL | inactive
IWVGRTDFWFWHVTGEDCLG | inactive
IWWNHCEHHMLRSSLRVRAY | inactive
IWWVSK | inactive
IYAGS | -0.633 ± 0.96
IYCPNIILLVKRHGVFQMFL | 2.3 ± 0.072
IYDCNRDIGDVLTSSDPPHA | inactive
IYDSRWTTNDSSCTTVFTEQ | inactive
IYILYVMDF | inactive
IYIRVRMDEFLMSVTTIARG | inactive
IYKKNMAGRVDQKIVTQDPP | inactive
IYLLGMYIKACSG | inactive
IYNPRSNINQFPDTFEPDQM | inactive
IYSIKSV | -0.357 ± 0.68
IYSNSLACDRSGFFKASSSQ | -0.998 ± 1.2
IYSNSPDRPEFHCNSRCGDG | inactive
IYSRELHVCAVSIADFIWFW | inactive
